Six molecules from publication PMC7083832, “Structural analysis of TIFA: Insight into TIFA-dependent signal transduction in innate immunity” (Scientific Reports, 2020) can be followed below.

B1: full-length mouse TIFA (TRAF-interacting protein with a forkhead-associated (FHA) domain) (natural protein, UniProt Q793I8 1-184, looked up)
chain: MSTFEDADTEETVTCLQMTIYHPGQQSGIFKSIRFCSKEKFPSIEVVKFGRNSNMCQYTFQDKQVSRIQFVLQPFKQFNSSVLSFEIKNMSKKTSLMVDNQELGYLNKMDLPYKCMLRFGEYQFLLQKEDGESVESFETQFIMSSRPLLQENNWPTQNPIPEDGMYSSYFTHRSSPSEMDENEL
notes: TIFA, mouse, full length, 184 amino acids, GenBank BAB86903.1; A SeMet form (E. coli B834(DE3)) was used only for phasing; also called wildtype TIFA; native TIFA; not shown: His tag, C-terminal, kept
B2: mouse TIFA E39R/E45R/E138R mutant (natural protein, UniProt Q793I8 1-184, looked up)
chain: B1 chain with E39R, E45R, E138R
notes: TIFA, mouse, full length, 184 amino acids, GenBank BAB86903.1, with E39R, E45R and E138R; source: E. coli BL21(DE3), pET-30b(+), purified by nearly the same procedure as for native TIFA
B3: mouse TIFA T9E/C36S mutant (natural protein, UniProt Q793I8 1-184, looked up)
chain: B1 chain with T9E, C36S
notes: TIFA, mouse, full length, 184 amino acids, GenBank BAB86903.1, with T9E (phosphomimetic) and C36S; source: E. coli BL21(DE3), pET-30b(+), purified by nearly the same procedure as for native TIFA
B4: mouse TIFA E39R/E138R mutant (natural protein, UniProt Q793I8 1-184, looked up)
chain: B1 chain with E39R, E138R
notes: TIFA, mouse, full length, 184 amino acids, GenBank BAB86903.1, with E39R and E138R; source: E. coli BL21(DE3), pET-30b(+), purified by nearly the same procedure as for native TIFA
B5: mouse TIFA T9D/C36S mutant (natural protein, UniProt Q793I8 1-184, looked up)
chain: B1 chain with T9D, C36S
notes: TIFA, mouse, full length, 184 amino acids, GenBank BAB86903.1, with T9D (phosphomimetic) and C36S; Dimers assemble into a hexamer in the crystal; source: E. coli BL21(DE3), pET-30b(+), purified by nearly the same procedure as for native TIFA
B6: mouse TRAF6-C containing a part of coiled-coil domain (amino acid residues from 326 to 516) (domain or fragment, UniProt P70196 326-516, looked up)
chain: AKMETQSMYVGELKRTIRTLEDKVAEMEAQQCNGIYIWKIGNFGMHLKSQEEERPVVIHSPGFYTGRPGYKLCMRLHLQLPTAQRCANYISLFVHTMQGEYDSHLPWPFQGTIRLTILDQSEALIRQNHEEVMDAKPELLAFQRPTIPRNPKGFGYVTFMHLEALRQGTFIKDDTLLVRCEVSTRFDMGGL
notes: TRAF6, mouse, residues 326-516: part of the coiled-coil domain and the C-terminal TRAF (TRAF-C) domain; also called TRAF-C domain of TRAF6; not shown: His tag, C-terminal, kept

Numbering of substitutions follows the chain as printed. Names may count otherwise. “And” between values parts separate entries of the source, which are not always exact repeats. Identical values can stand only once.

Data set [1] deals with B6. Briefly: SEC; TIFAs and TRAF6-C mixed at a molar ratio of 1:1 (monomer:monomer); Superdex 200; 20 mM Tris pH 8.0, 500 mM NaCl, 2 mM EDTA, 1 mM β-mercaptoethanol. The settings on record: both partners purified.
Data set [2] deals with the molecule itself. As to the kind of experiment: crystal structure; hanging-drop vapour diffusion, reservoir 0.1 M MES pH 6.4, 5% (v/v) MPD (native TIFA; T9E/C36S under a similar condition); data at 100 K.
Data set [3] deals with the molecule itself. Briefly: SEC; each protein alone; Superdex 200; 20 mM Tris pH 8.0, 500 mM NaCl, 2 mM EDTA, 1 mM β-mercaptoethanol.
Data set [4] concerns the molecule itself. As to the kind of experiment: crystal structure; reservoir 0.1 M sodium citrate pH 5.3, 40% (v/v) PEG400 (T9D/C36S); data at 100 K.

For B1, in data set [1], the binding result is recorded as “binds”. Moreover, in data set [2], the “stoichiometry N” value came out at 2.

In the case of B2, the binding result in data set [1] and in data set [3] was “binds” each time. With B3, the binding result in data set [1] is listed as “binds”. In addition, in data set [2], the “stoichiometry N” value came to 2. Consider B4, for which the binding result in data set [1] and in data set [3] was “binds” in each case.

For B5, the “stoichiometry N” value in data set [4] is 2 and 6. In data set [1], the binding result is “binds”.

As for B6, the “stoichiometry N” value in data set [3] amounted to 3.
